Reference: patent publication US11795488B2, “Methods for enzymatic peptide ligation” (NANYANG TECHNOLOGICAL UNIVERSITY, priority 2016, dated 2023)
Residue numbers refer to the chain shown, from its start. Where two headings read alike, the source gives them in different places.

Assays:
[1] = Proteolytic and protein ligation activity of AEP_C13C04; assay type: biochemical
Text: Based on the prediction of the sequence alignment, AEP_C13C04 contained the conserved structural motif identical to Quicklase (247-264). […] The cDNA of AEP_C13C04 was then subsequently synthesized and subcloned into pet28b in a similar way as Quicklase.

OaAEP1 [2] = test: Self-activation (acid-induced self-cleavage) of OaAEP1 and mutants, SDS PAGE; assay type: biochemical, Oldenlandia affinis; conditions: for self-activation (auto-activation): acidic pH
Experimental: To self-activate OaAEP1, 1 mM EDTA and 0.5 mM Tris (2-carboxyethyl) phosphine hydrochloride were added to the immature protein and the pH of the solution was adjusted to 4 with glacial acetic acid. Fractions containing the protein (as analyzed by SDS-PAGE) were pooled and then incubated for 3 to 16 hours at room temperature or 37° C. Protein precipitation at this pH allowed removal of the bulk of the contaminating proteins by centrifugation. Activated proteins were concentrated by ultracentrifugation using a 50 kDa cutoff concentrator (Sartorius) and stored at −80° C.
OaAEP1 was cloned and expressed in E. coli as an ubiquitin fusion protein as reported earlier (FIG. 2) (Harris, K. S., et al., Nat Commun, 2015. 6: p. 10199). Using ion exchange and size exclusion chromatography (SEC), sufficient amounts of pure protein suitable for enzymatic and structural analysis were obtained (FIG. 2B). At the neutral pH of purification (pH=7.4), OaAEP1 was mainly present as a heterodimer, where both monomers are in their zymogenic form, but only one monomer had retained in addition the ubiquitin and N-terminal His-tag, while the fusion moiety was cleaved in the other monomer (labeled as “His-Ub-AEP-FL” and “AEP-FL” in FIG. 2B and FIG. 2C). This heterodimer was subjected to crystallization trials for structural studies (see below). In agreement with reference (Harris, K. S., et al., Nat Commun, 2015. 6: p. 10199), activation of OaAEP1 was optimum for pH values in the range of 3.4-4.0 (FIG. 2D). Following activation, OaAEP1 converts to a monomer in solution according to SEC analysis (“AEP-holo” in FIG. 2C). To test the ability of the protein to be activated in trans, the catalytic residue Cys217 was mutated into Ser217.
Since the crystallization conditions are compatible with OaAEP1 activation, the present crystal structure is likely to have captured one of the conformational states occurring along the activation pathway. To determine whether Gln347 belongs to the segment recognized and cleaved during self-activation, mutagenesis experiments targeting region 346-351 of the OaAEP1 protein were performed (FIG. 4C). The role of Gln347 in OaAEP1 auto-activation was particularly assessed by mutating this residue to Ala, and whether enzyme activation was abolished was examined. Only little impact was found on the mutant enzyme activation (FIG. 4C). Residues Asn346, Asp349 and Asp351 that are next to Gln347 were then targeted. […] Thus, trans-activation requires the presence of at least one of the four Asx/Gln residues (with a slight preference for Asp349 or Asp351) found in this segment of the linker.

OaAEP1 [3] = test: Trans-activation of inactive mutants by wild type OaAEP1; assay type: biochemical, Oldenlandia affinis
Text: (a) Schematic illustration of the His-Ub-OaAEP1 construct used with the boundaries of the three regions of the protein indicated and the deduced activation segment. 6-His tag and Ubiquitin tag followed by OaAEP1 (24-474) was synthesized and inserted into pET28b vector. After Ni-NTA affinity purification, about half of Ub-AEP-FL lost the N-terminal fusion tags and was purified in AEP-FL form (53-474), which was eventually crystallized. The enzymatic active form of OaAEP1b, AEP-holo (53-347/351) is the acidic induced self-cleavage product of AEP-FL, which lost the C-terminal auto inhibitory cap domain. (b) SDS PAGE analysis of fractions obtained over the course of chromatographic purification and of dissolved crystals. (c) Size-exclusion chromatography profiles of OaAEP1 before and after activation showing Ub-AEP-FL and AEP-FL heterodimer and the AEP-holo monomer. The elution volumes of standard proteins are indicated for comparison. (d) SDS PAGE analysis of OaAEP1 pH-dependent activation. The activation was performed for 3 hours, and the peak of activation is in between pH 3.4 to 4.
OaAEP1 was cloned and expressed in E. coli as an ubiquitin fusion protein as reported earlier (FIG. 2) (Harris, K. S., et al., Nat Commun, 2015. 6: p. 10199). Using ion exchange and size exclusion chromatography (SEC), sufficient amounts of pure protein suitable for enzymatic and structural analysis were obtained (FIG. 2B). […]
Since the crystallization conditions are compatible with OaAEP1 activation, the present crystal structure is likely to have captured one of the conformational states occurring along the activation pathway. […] The role of Gln347 in OaAEP1 auto-activation was particularly assessed by mutating this residue to Ala, and whether enzyme activation was abolished was examined. […]

peptide substrate = test: Comparison of cyclization efficiency of gate-keeper Cys247 mutants (MALDI-TOF MS); assay type: biochemical
Experimental: Native and modified amino acids were purchased from Sigma-Aldrich (USA). All peptides used in this manuscript were synthesized in-house using the solid-phase method and HPLC purified. Cyclization assays were performed in 50-μl reaction mixtures containing 20 mM phosphate buffer, ligases (5 to 700 nM) and peptide substrates (10 to 300 μM). Each reaction was performed in triplicate at 37° C. and quenched by adding 5 μl of 1 M HCl solution. The peptides were separated by using a reversed-phase C18 analytical column (150×2.1 mm, Vydac) with a linear gradient from 10% to 50% acetonitrile over 15 min on a Nexera UHPLC system (Shimadzu). For kinetic analysis, the concentrations of WT OaAEP1, mutant OaAEP1, and butelase 1 were fixed at 700 nM, 50 nM, and 20 nM, respectively. The cyclization velocities were calculated by converting the HPLC-peak areas of remained linear precursors or the cyclized products into concentrations. The identity of each HPLC peak was analyzed by MALDI-TOF MS (ABI 4800 MALDI TOF/TOF). The velocities were input into GraphPad Prism (GraphPad Software, San Diego) to obtain the Michaelis-Menten curve and the kinetic parameters (kcat and Km). Comparison for the cyclization efficiency of various OaAEP1 mutants were performed in a volume of 20 μl of the reaction mixture and analyzed by MALDI-TOF MS after 10 mins or 1 hour ligation reaction.
The pre-ligation conformation of OaAEP1 captured in the present structure was then analyzed to identify several key features that could differentiate an AEP protease from an AEP-like ligase. […] In contrast to AEP proteases, the surface of OaAEP1 facing the catalytic Cys217 appears to be more widely open. Three cysteine residues (Cys247, Cys250, Cys264) are aligned along a shallow cleft at the surface of the enzyme (FIGS. 3C and 3E). Unlike the surface of AEP proteases that contains several bulges, both butelase 1 (using a homology model based on OaAEP1b) and OaAEP1 have residues with smaller side-chains along this patch. A disulfide bond is formed between Cys250 and Cys264, which are conserved in AEP-like ligases butelase 1 and OaAEP1b. This covalent bond is likely to stabilize the local structure and provide an adequate surface allowing the approach of an N-terminal amine incoming group. Conversely, the corresponding surface patch of AEP proteases (PDB: 4AWA) is lined with residues having bulky side-chains like Tyr (FIG. 3E) blocking this channel. It was therefore hypothesized that residue Cys247 which is located at the extremity of the substrate channel is likely to function as a final nucleophile filter (or “gate-keeper”), allowing attack from the N-terminal amine to complete the ligation reaction. […]

B1: AEP_C13C04: Peptidase C13, legumain [OMO86616.1] from Corchorus olitorius, SEQ ID NO:8 (protein, listed as Corchorus olitorius)
chain: MTRLVAGVILLLLSVTGIASAGRDATGDVLRLPSEASRFFRPSDDDEVGTRWAVLIAGSNGYWNYRHQADVCHAYQLLKKGGLKDENIIVFMYDDIAFNYENPRQGIIINSPHGDDVYQDVPKDYTGEEVTVHNFLAAILGNKTAIKGGSGKVVDSGPNDHIFIYYTDHGGPGVLGMPTYPYLYADELIDTLKKKHASGTYKSLVFYLEACESGSIFEGLLPEGLNIYATTASNADESSWGTYCPGEYPSPPPEYETCLGDLYSVAWMEDSDLHNLRTETLHQQYELVKRRTLNGNSAYGSHVMQYGDVGLAKEHLFLYLGTNPANDNFTFIDENSLQPPAKAVNQRDADLVHFWDKYRKAPDGSVRKVEAQKQVVEAMSHRMHVDNSIQLIGKLLFGIERGADVLKTVRPAGQPLVDDWKCLKSMVRTFETHCGSLAQYGMKHMRSIANICNAGIQTEQMAEASSQACVSIPSGQWSSIQKGFSA
For B1, the byproducts [1] was “significant byproducts of proteolytic reactions”, the “proteolytic and protein ligation activities” value [1] was “exhibited both proteolytic and protein ligation activities” and the “proteolytic and protein ligation activities” value ([1]; listed as AEP_C13CO4) was “is a peptide ligase having the activity of OaAEP1 Cys247Ala”. For the same molecule, the “enzymatic catalytic efficiency compared with Quicklase” value ([1]; wild type AEP_C13C04) was “much slower”.

B2: Cys217Ser (protein)
chain: MVRYLAGAVLLLVVLSVAAAVSGARDGDYLHLPSEVSRFFRPQETNDDHGEDSVGTRWAVLIAGSKGYANYRHQAGVCHAYQILKRGGLKDENIVVFMYDDIAYNESNPRPGVIINSPHGSDVYAGVPKDYTGEEVNAKNFLAAILGNKSAITGGSGKVVDSGPNDHIFIYYTDHGAAGVIGMPSKPYLYADELNDALKKKHASGTYKSLVFYLEASESGSMFEGILPEDLNIYALTSTNTTESSWCYYCPAQENPPPPEYNVCLGDLFSVAWLEDSDVQNSWYETLNQQYHHVDKRISHASHATQYGNLKLGEEGLFVYMGSNPANDNYTSLDGNALTPSSIVVNQRDADLLHLWEKFRKAPEGSARKEEAQTQIFKAMSHRVHIDSSIKLIGKLLFGIEKCTEILNAVRPAGQPLVDDWACLRSLVGTFETHCGSLSEYGMRHTRTIANICNAGISEEQMAEAASQACASIP
For B2, the “activation and ligase activity of active site mutant” value (OaAEP1 [2]) was “only displayed background level activation and ligase activity” and the “activation in trans by wild type OaAEP1” value (OaAEP1 [3]) was “could be rescued in trans by addition of only 10% of wild type OaAEP1”.

B3: Cys217Ala (protein)
chain: B2 chain with S217A
With B3 the “self-activation (auto-activation)” value (OaAEP1 [2]) was “devoid of self-activation activity” and the “activation in trans by wild type OaAEP1” value (OaAEP1 [3]) was “trans-cleavage and activation of most of the AEP-FL Cys217Ala after 18 hours”.

B4: Asn346Ala-Gln347Ala (protein)
chain: B2 chain with S217C, N346A, Q347A
In the case of B4, the “self-activation (auto-activation)” value (OaAEP1 [2]) is reported as “can still be activated”.

B5: Cys247Gly: OaAEP1 gate-keeper mutant Cys247 to Gly (protein)
chain: B2 chain with S217C, C247G
For B5, the “alternative reaction when N-terminal amine is not available” value (peptide substrate; N-terminal amine group acetylated) was “catalyzes peptide hydrolysis as alternative reaction” and the “ligase activity compared to WT OaAEP1” value (peptide substrate; gate-keeper position 247 mutants) was “negatively affects the ligase activity”.

B6: Asn346Ala-Gln347Ala-Asp349Ala-Asp351Ala (protein)
chain: B2 chain with S217C, N346A, Q347A, D349A, D351A
With B6 the “self-activation (auto-activation)” value (OaAEP1 [2]) was “most significantly impaired auto-activation activity”, the “self-activation (auto-activation)” value (OaAEP1 [2]; listed as A4) was “more severe loss of function phenotype” and the “activation in trans by wild type OaAEP1” value (OaAEP1 [3]) was “could not be rescued in trans”.

B7: Asn346Ala-Asp349Ala-Asp351Ala (protein)
chain: B2 chain with S217C, N346A, D349A, D351A
With B7 the “self-activation (auto-activation)” value (OaAEP1 [2]) was “can still be activated” and the “self-activation (auto-activation)” value (OaAEP1 [2]; listed as A3) was “more severe loss of function phenotype”.

B8: Asp349Ala-Asp351Ala (protein)
chain: B2 chain with S217C, D349A, D351A
With B8 the “self-activation (auto-activation)” value (OaAEP1 [2]) was “can still be activated”.
